{
  "source": "patent US9295682B2",
  "about": "“Adjuvant immunotherapy for the preventive, curative or palliative treatment of chronic systemic diseases such as cancer, of clinical manifestations associated with diseases like cachexia and correction of adverse effects of drugs such as immunosuppression, neutropenia and lymphopenia, comprising …” (priority 2009, dated 2016)",
  "molecules": {"B1": {"name": "Interleukin-12 (IL-12) (protein, UniProt P29459 23-219; P29460 23-328, looked up)", "Interleukin-12 subunit alpha": "RNLPVATPDPGMFPCLHHSQNLLRAVSNMLQKARQTLEFYPCTSEEIDHEDITKDKTSTVEACLPLELTKNESCLNSRETSFITNGSCLASRKTSFMMALCLSSIYEDLKMYQVEFKTMNAKLLMDPKRQIFLDQNMLAVIDELMQALNFNSETVPQKSSLEEPDFYKTKIKLCILLHAFRIRAVTIDRVMSYLNAS", "Interleukin-12 subunit beta": "IWELKKDVYVVELDWYPDAPGEMVVLTCDTPEEDGITWTLDQSSEVLGSGKTLTIQVKEFGDAGQYTCHKGGEVLSHSLLLLHKKEDGIWSTDILKDQKEPKNKTFLRCEAKNYSGRFTCWWLTTISTDLTFSVKSSRGSSDPQGVTCGAATLSAERVRGDNKEYEYSVECQEDSACPAAEESLPIEVMVDAVHKLKYENYTSSFFIRDIIKPDPPKNLQLKPLKNSRQVEVSWEYPDTWSTPHSYFSLTFCVQVQGKSKREKKDRVFTDKTSATVICRKNASISVRAQDRYYSSSWSEWASVPCS"}},
  "system": "Lewis lung carcinoma (3LL)",
  "assay": "Lewis lung carcinoma (3LL) survival, 1st experiment (Table A)",
  "assay_type": "in vivo, C57B1/6 female mice",
  "conditions": "100 days; IM-2 0.5 mg/kg/day alone, IM-2 0.5 mg/kg + Il-2 0.05 μg/animal, or IL-2 0.1 μg/animal alone; i.p., 3 weekly cycles",
  "description": "Animals: 3-week-old C57B1/6 female mice were used in all the experiments (Table A, Table B, Table C)\nTumor: Lewis lung carcinoma (3LL) was the tumor selected for all the in vivo assessments (Table A, Table B, Table C) in these experiments, with the cells maintained in culture medium and inoculated subcutaneously in the animals at the concentration of 6×10^5 cancer cells (3 LL) for each animal.\nTreatments: All treatments began 24 hours after the inoculation of cancer cells.\nObservation period: The animals were evaluated during an observation period of 100 days in the survival experiment.\nA fourth batch of 20 animals (Group 4) inoculated with 3 LL cells (6×10^5 cells/animal), was treated with 0.5 mg/kg/day of the proteic aggregate of ammonium and magnesium phospholinoleate-palmitoleate anhydride (Table A—Group 4—IM-2) and Interleukin-12 (IL-12), 0.05 g/animal given jointly by intraperitoneal injections in 3 weekly cycles. The animals were followed up for 100 days.\nA fifth batch of 20 animals (Table A—Group 5) inoculated with 3 LL cells (6×10^5 cells/animal) was treated with Interleukin-12 (IL-12), 0.1 μg/animal applied by intraperitoneal injection in 3 weekly cycles. The animals were followed up for 100 days, and the number of survivors was expressed in percentage.",
  "data": [
    {"molecule": "B1", "values": [
      {"measurement": "% Survivors", "value": 50, "unit": "%"}
    ]}
  ]
}
